Experimental data from patent US20210324080A1 (JIANGSU HUAIYU PHARMACEUTICAL, published 2021).

T1: recombinant His-labeled hCTLA-4 ECD protein (human, UniProt P16410 36-161)
T1 construct: extracellular domain; also called human CTLA-4 ECD; not shown: His label
T1 sequence (looked up): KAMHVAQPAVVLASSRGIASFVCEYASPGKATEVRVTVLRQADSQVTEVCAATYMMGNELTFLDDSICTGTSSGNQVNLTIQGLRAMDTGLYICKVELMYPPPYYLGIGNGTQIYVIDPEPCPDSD

T2: CTLA-4-hFc (immunogen A; hFc-labeled CTLA-4 extracellular domain protein) (human, UniProt P16410 36-161)
T2 construct: range 36-161; Made in HEK293 cells, purified on protein A; also called CLTA-4-hFc; CTLA-4 protein; not shown: human IgG Fc fragment (hFc) of the pCpC vector
T2 sequence (looked up): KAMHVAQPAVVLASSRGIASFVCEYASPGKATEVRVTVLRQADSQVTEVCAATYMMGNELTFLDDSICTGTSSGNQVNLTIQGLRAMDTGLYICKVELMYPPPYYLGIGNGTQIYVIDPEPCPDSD


Key:
[1] = target: T1, recombinant His-labeled hCTLA-4 ECD …; assay: SPR Biacore T200, antibody captured by anti-human Fc, 1:1 model
Experimental: Anti-human Fc IgG was fixed on flow cell 1 and 2. HBS-EP+ (10 mmol/L HEPES, 150 mmol/L NaCl, 3 mM EDTA, 0.05% P20, pH 7.4) was used as the running buffer, and anti-human Fc IgG was fixed using the fixing wizard template. The flow cells 1 and 2 connected in series with S CM5 sensor chip were activated with freshly mixed 50 mmol/L NHS and 200 mmol/L EDC. Anti-human Fc IgG was diluted to […] with 10 mmol/L NaAC (pH 4.5) and injected into activated flow cells 1 and 2. The remaining active coupling sites were blocked with 1 mol/L ethanolamine.
The recombinant His-labeled hCTLA-4 ECD protein was diluted to 50 nmol/L, and then serially diluted 4 times with HBS-EP+ buffer at a 2-fold ratio. […] Each antibody was injected into the CM5 sensor flow cell 2 at a flow rate of 10 μL/min to achieve a response of 230 RU. Then the prepared His-labeled hCTLA-4ECD protein was injected into flow cells 1 and 2 at a flow rate of 30 μL/min for 180 seconds. The buffer flow was maintained for 400 seconds for dissociation measurement (30 μL/min). To remove the tested antibody from the surface, 10 mmol/L glycine-HCl pH1.5 was injected for 20 seconds (30 μL/min). Flow cell 1 was used as a reference flow cell. The above steps were repeated for each concentration of serially diluted His-labeled CTLA-4ECD protein. The KD value of each antibody was evaluated using Biacore T200 evaluation software 1.0, and a 1:1 binding model was used to fit the data.

[2] = target: T2, CTLA-4-hFc (immunogen A; hFc-labeled …); assay: blocking assay, CTLA-4 protein, competitor B7.2
Experimental: (§1) CTLA-4 extracellular domain protein (CTLA-4-hFc) was diluted with PBS to a final concentration of 1.0 μg/mL, and then added to a 96-well ELISA plate as 100 μl per well. The plate was covered with a plastic film and incubated overnight at 4° C. The plate was washed twice with plate washing solution [PBS containing 0.01% (v/v) Tween 20] on the next day, and added with blocking solution [PBS containing 0.01% (v/v) Tween 20 and 1% (w/w) BSA] and blocked at room temperature for 2 hours. […] After 2 hours, the plate was washed 3 times with a plate washing solution [PBS containing 0.01% (v/v) Tween 20]. HRP (horseradish peroxidase) labeled avidin diluent (purchased from Sigma) was added 100 microliters per well, and after the plate was incubated for 2 hours at 37° C., it was washed with plate washing solution [PBS containing 0.01% (v/v) Tween 20] for 3 times. […] TMB substrate was added to each well. After incubated at room temperature for 30 minutes, the plate was added with […] stop solution (1.0N HCl) to each well. An ELISA plate reader (SpectraMax 384plus, Molecular Device) was used to read the A450 nm value.

[3] = target: T2, CTLA-4-hFc (immunogen A; hFc-labeled …); assay: receptor-ligand blocking assay: CTLA-4 protein, antibody titrated, blocked ligand B7.1, inhibition (%)
Experimental: as §1

Binder | Kd [1] [nM] | koff [1] [s⁻¹] | kon [1] [M⁻¹ s⁻¹] | % Block at 0.000128 nM [2] [%] | % Block at 0.0128 nM [2] [%] | % Block at 0.064 nM [2] [%] | % Block at 0.32 nM [2] [%] | % Block at 1.6 nM [2] [%] | % Block at 8 nM [2] [%] | % Block at 40 nM [2] [%] | % Block at 200 nM [2] [%] | IC50 (read off the curve) [3] [nM]
31C12F3 fully human CTLA-4 antibody (human IgG1, kappa) (antibody, V domains shown, also called mAb010) VH: QVQLVESGGGVVQPGRSLILSCAASGFTFSSYGMHWVRQAPGKGLEWVAVVWYDGSNKYYADSVKGRFTISRDNSKNTLYLQMSSLRAEDTAVYYCARGGIVVPGLFEYWGQGSLVTVSS VL: DIQMTQSPSSLSASVGDRVAITCRTSQSISNLLNWYQQKPGKAPELLIYAPSSFQSGVPSRFRGSGSGTDFTLTISSLQPEDFATYYCQQSYSTPFTFGPGTKVDIK | 2.62 | 0.00118 | 450000 | 0 | 25.6 | 48.1 | 84.4 | 99 | 99.1 | 99.1 | 99.2 | –
92C8B6 fully human CTLA-4 antibody (human IgG1, kappa) (antibody, V domains shown, also called mAb42; mAb042) VH: QVQLVESGGGVVQPGRSLRLSCAASGFTFSNFGMHWVRQAPGKGLEWVAVIWYDGSNKYYADSVKGRFTISRDNSKNTLFLQMNGLRAEDTAVYYCAKGGILMAGTLDYWGQGTLVTVSS VL: DIQMTQSPSSLSASVGDRVTITCRASQSVSTYLNWYQQKPGKAPKLLIYAASSFQSGVPSRFSGSGSGTDFTLTISSLQPEDFATYFCQQSYSTPFTFGPGTKVDIK | 2.52 | 0.00187 | 744000 | 0 | 25 | 36.7 | 78.5 | 98.7 | 99.2 | 99.2 | 99.2 | 1 to 2

Now those with a lower Kd [1], led by results:

Kd [1] [nM] | koff [1] [s⁻¹] | kon [1] [M⁻¹ s⁻¹] | % Block at 0.000128 nM [2] [%] | % Block at 0.0128 nM [2] [%] | % Block at 0.064 nM [2] [%] | % Block at 0.32 nM [2] [%] | % Block at 1.6 nM [2] [%] | % Block at 8 nM [2] [%] | % Block at 40 nM [2] [%] | % Block at 200 nM [2] [%] | IC50 (read off the curve) [3] [nM] | Binder
2.36 | 0.0017 | 720000 | 0 | 30 | 52.4 | 89.2 | 99.1 | 99.1 | 99.1 | 99.1 | – | 40C4C6 fully human CTLA-4 antibody (human IgG1, kappa) (antibody, V domains shown, also called mAb09; mAb009) VH: QVQLVESGGGVVQPGRSLRLSCAASGFTFSSYGMHWVRQAPGKGLEWVAVIWYDGRNKYYADSVKGRFTISRDNSKNTLYLQMNSLRAEDTAVYYCARASGSYSYYFDYWGQGTLVTVSS VL: DIQMTQSPSSLSASVGGRVTITCRASQSISSFLNWYQHELGKAPKLLIYGASSLQSGVPSRFSGSGSGTDFTLTISSLQPEDFATYYCQQTYSTPFTFGPGTKVDIK
2.15 | 0.00087 | 405000 | 0 | 33 | 48.4 | 84.1 | 99 | 99.2 | 99.2 | 99.2 | 1 to 2 | 97A8D1 fully human CTLA-4 antibody (human IgG1, kappa) (antibody, V domains shown, also called mAb49; mAb049) VH: QVQLVESGGGVVQPGRSLRLSCVASGFTFNNYGMNWVRQAPGKGLEWVAVIWYGGRNKFYADSVKGRFTISRDNSKNTLYLEMNSLRAEDTAVYYCARADWGGWFDPWGQGTLVTVSS VL: EIVLTQSPGTLSLSPGERATLSCRASQSVSSTYLAWYQQKPGQAPRLLIHGAFSRATGIPDRFSGSGSGPDFTLTISRLEPEDFAVYYCQQYGTSPFTFGPGTKVDIK
